Here are results for two molecules from paper PMC1807967.

Common to all, as to experiment: EMSA
Series [1] addresses T1, ttMutS2 (Thermus thermophilus, UniProt Q5SHT5 1-744).
T1 sequence: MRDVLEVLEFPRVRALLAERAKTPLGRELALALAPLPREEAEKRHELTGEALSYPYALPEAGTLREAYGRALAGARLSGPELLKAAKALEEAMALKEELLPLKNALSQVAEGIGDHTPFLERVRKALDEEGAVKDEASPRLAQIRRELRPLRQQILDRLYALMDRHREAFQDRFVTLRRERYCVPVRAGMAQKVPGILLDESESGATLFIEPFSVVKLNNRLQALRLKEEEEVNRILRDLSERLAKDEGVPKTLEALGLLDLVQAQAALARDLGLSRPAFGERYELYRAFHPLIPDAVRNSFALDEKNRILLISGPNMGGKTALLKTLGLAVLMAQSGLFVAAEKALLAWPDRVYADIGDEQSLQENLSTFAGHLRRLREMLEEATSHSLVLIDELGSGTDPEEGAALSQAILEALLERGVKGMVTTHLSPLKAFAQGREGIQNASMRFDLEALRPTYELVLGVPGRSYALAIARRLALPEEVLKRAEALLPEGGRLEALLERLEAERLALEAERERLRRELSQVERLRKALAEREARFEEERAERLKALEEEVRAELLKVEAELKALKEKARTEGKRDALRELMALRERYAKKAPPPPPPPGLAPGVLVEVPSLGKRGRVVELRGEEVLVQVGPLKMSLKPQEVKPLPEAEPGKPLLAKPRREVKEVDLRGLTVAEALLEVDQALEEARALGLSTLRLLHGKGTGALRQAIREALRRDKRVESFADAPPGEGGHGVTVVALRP

For series [2], the target named is T2, N60-ttMutS2 (Smr-deleted) (Thermus thermophilus, UniProt Q5SHT5 1-540).
T2 sequence: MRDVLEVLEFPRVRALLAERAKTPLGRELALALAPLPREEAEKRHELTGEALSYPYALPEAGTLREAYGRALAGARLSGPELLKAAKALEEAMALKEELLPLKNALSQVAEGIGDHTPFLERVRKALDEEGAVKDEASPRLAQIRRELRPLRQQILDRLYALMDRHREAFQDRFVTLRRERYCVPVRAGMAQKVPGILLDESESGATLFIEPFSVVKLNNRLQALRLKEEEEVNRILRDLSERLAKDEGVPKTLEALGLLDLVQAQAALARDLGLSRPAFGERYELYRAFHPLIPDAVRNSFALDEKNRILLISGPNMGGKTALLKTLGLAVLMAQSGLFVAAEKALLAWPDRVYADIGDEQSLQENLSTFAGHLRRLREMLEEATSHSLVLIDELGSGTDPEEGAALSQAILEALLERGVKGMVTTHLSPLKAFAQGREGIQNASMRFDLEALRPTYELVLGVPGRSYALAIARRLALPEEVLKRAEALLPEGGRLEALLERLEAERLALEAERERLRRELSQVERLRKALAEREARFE

In series [3] the target is T1, ttMutS2. The source holds these as a separate data set.
Series [4] addresses T2, N60-ttMutS2 (Smr-deleted). The source holds these as a separate data set.
For series [5], the target named is T3, ttSmr (Thermus thermophilus, UniProt Q5SHT5 621-744).
T3 sequence: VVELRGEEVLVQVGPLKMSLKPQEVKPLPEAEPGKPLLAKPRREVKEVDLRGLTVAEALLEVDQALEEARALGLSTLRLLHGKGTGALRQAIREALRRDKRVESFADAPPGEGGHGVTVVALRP

Like-named read-outs stand apart in the source and are kept apart here.

B1: 20 bp dsDNA (dsDNA)
DNA 1: ATGTGAATCAGTATGGTTTC
DNA 2: GAAACCATACTGATTCACAT
In the case of B1, the binding result in series [1] and in series [2] was “binds” in each case.
Take ATGTGAATCAGTATGGTTTC (ssDNA) [20mer ssDNA]: the binding result is “no binding” in series [3], “no binding” in series [4] and “binds” in series [5].
